Experimental data from patent US20150023989A1, “NEW ANTIBODY DRUG CONJUGATES (ADCS) AND THE USE THEREOF” (SEATTLE GENETICS, INC., priority 2011, published 2015).

Columns and labels:
Assay in all cases: ELISA cross-reactivity of M048-D01 Fab
Conditions in all cases: Fab 1 μg/ml, TRAIL-Fc wells as background
hFGFR1β-Fc (IIIb) = assay type: binding, Human
Method: (§1) The cross-reactivity of the human antibodies M048-D01-hIgG1 and M048-D01-hIgG1-b of the present application was determined using the parental Fab fragment M048-D01 (comprising Vh: SEQ ID NO: 21 and Vl: SEQ ID NO: 22).
(§2) All of the variants took the form of Fc fusion proteins in carrier-free preparations. The proteins were biotinylated according to manufacturer instructions, using a 2-fold molar excess of biotin-LC-NHS (Pierce; Cat. No. 21347) and desalted using Zeba desalting columns (Pierce; Cat. No. 89889). For the ELISA, 96-well plates pretreated with streptavidin (Pierce, 15500) were loaded overnight at 4° C. with 1 μg/ml biotinylated protein. Wells which had been loaded with biotinylated TRAIL-Fc served as a reference. The next day the plates were washed 3× with PBST (1×PBS admixed with 0.05% Tween 20 (Sigma, P7949)), treated with blocking buffer (PBST admixed with 3% BSA (Sigma A4503)), and again washed three times with PBST. 100 μl of the purified Fab (1 μg/ml) were added, and incubation was carried out at room temperature for 1 hour. […] The colour reaction was monitored at 450 nm in a plate reader (Tecan). The signal strengths of the wells containing TRAIL-Fc were used as background values, and the signal-to-background ratios were calculated as summarized in Table 3.

hFGFR2β-Fc (IIIc) = assay type: binding, Human
Method: as §1, §2

mFGFR2β-Fc (IIIc) = assay type: binding, Mouse
Method: as §1, §2

hFGFR4-Fc = biological target: T1, hFGFR4-Fc (Homo sapiens, UniProt P22455); assay type: binding
T1 construct: purchased RnD Systems 685-MF
Method: as §1
(§3) All of the variants took the form of Fc fusion proteins in carrier-free preparations. The proteins were biotinylated according to manufacturer instructions, using a 2-fold molar excess of biotin-LC-NHS (Pierce; Cat. No. 21347) and desalted using Zeba desalting columns (Pierce; Cat. No. 89889). For the ELISA, 96-well plates pretreated with streptavidin (Pierce, 15500) were loaded overnight at 4° C. with 1 μg/ml biotinylated protein. Wells which had been loaded with biotinylated TRAIL-Fc served as a reference. The next day the plates were washed 3× with PBST (1×PBS admixed with 0.05% Tween 20 (Sigma, P7949)), treated with blocking buffer (PBST admixed with 3% BSA (Sigma A4503)), and again washed three times with PBST. 100 μl of the purified Fab (1 μg/ml) were added, and incubation was carried out at room temperature for 1 hour. After threefold washing with PBST, an HRP-coupled anti-hIgG (Fab-specific) (diluted 1:2500, Sigma, A0293) was added, and incubation took place at room temperature for 1 hour. The colour reaction was activated by addition of 50 μl of TMB (Invitrogen, 2023) and halted after 5-15 minutes by addition of 50 μl of H2SO4 (Merck, 1120801000). The colour reaction was monitored at 450 nm in a plate reader (Tecan). The signal strengths of the wells containing TRAIL-Fc were used as background values, and the signal-to-background ratios were calculated as summarized in Table 3.

mFGFR3-Fc (IIIc) = biological target: T2, mFGFR3-Fc (IIIc) (Mus musculus, UniProt Q61851); assay type: binding
T2 construct: purchased RnD Systems 710-MF
T2 sequence (Q61851 21-369 limits assumed): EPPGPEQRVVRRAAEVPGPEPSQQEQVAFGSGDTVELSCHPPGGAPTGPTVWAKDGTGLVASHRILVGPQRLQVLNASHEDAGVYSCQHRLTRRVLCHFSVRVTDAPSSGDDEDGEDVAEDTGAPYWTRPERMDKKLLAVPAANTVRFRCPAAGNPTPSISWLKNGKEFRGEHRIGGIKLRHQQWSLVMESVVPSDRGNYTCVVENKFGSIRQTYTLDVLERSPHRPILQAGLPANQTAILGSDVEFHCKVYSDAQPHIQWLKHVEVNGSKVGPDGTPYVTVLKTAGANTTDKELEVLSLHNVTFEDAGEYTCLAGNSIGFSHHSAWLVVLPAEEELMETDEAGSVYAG
Method: as §1, §3

mFGFR2β-Fc (IIIb) = biological target: T3, mFGFR2β-Fc (IIIb) (Mus musculus, UniProt P21803); assay type: binding
T3 construct: purchased RnD Systems 708-MF
Method: as §1, §3

hFGFR3-Fc (IIIb) = biological target: T4, hFGFR3-Fc (IIIb) (Homo sapiens, UniProt P22607); assay type: binding
T4 construct: purchased RnD Systems 1264-FR
Method: as §1, §3

hFGFR2α-Fc (IIIb) = biological target: T5, hFGFR2α-Fc (IIIb) (Homo sapiens, UniProt P21802); assay type: binding
T5 construct: purchased RnD Systems 663-FR
Method: as §1, §3

hFGFR1β-Fc (IIIc) = biological target: T6, hFGFR1β-Fc (IIIc) (Homo sapiens, UniProt P11362); assay type: binding
T6 construct: purchased RnD Systems 661-FR
Method: as §1, §3

hFGFR2β-Fc (IIIb) = biological target: T7, hFGFR2β-Fc (IIIb) (Homo sapiens, UniProt P21802); assay type: binding
T7 construct: purchased RnD Systems 665-FR
Method: as §1, §3

hFGFR3-Fc (IIIc) = biological target: T8, hFGFR3-Fc (IIIc) (Homo sapiens, UniProt P22607); assay type: binding
T8 construct: purchased RnD Systems 766-FR
T8 sequence (P22607 23-375 limits assumed): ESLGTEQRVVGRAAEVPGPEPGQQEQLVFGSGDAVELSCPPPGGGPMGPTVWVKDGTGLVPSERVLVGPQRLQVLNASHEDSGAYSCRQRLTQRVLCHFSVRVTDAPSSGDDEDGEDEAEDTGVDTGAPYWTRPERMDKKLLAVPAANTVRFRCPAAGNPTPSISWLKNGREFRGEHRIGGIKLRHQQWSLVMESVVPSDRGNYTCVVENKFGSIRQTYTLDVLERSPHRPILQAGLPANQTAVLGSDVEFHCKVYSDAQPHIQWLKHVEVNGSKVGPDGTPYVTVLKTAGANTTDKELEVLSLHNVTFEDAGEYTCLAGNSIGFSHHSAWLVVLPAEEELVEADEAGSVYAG
Method: as §1, §3

T3 sequence (P21803 22-707 isoform P21803-2 limits assumed): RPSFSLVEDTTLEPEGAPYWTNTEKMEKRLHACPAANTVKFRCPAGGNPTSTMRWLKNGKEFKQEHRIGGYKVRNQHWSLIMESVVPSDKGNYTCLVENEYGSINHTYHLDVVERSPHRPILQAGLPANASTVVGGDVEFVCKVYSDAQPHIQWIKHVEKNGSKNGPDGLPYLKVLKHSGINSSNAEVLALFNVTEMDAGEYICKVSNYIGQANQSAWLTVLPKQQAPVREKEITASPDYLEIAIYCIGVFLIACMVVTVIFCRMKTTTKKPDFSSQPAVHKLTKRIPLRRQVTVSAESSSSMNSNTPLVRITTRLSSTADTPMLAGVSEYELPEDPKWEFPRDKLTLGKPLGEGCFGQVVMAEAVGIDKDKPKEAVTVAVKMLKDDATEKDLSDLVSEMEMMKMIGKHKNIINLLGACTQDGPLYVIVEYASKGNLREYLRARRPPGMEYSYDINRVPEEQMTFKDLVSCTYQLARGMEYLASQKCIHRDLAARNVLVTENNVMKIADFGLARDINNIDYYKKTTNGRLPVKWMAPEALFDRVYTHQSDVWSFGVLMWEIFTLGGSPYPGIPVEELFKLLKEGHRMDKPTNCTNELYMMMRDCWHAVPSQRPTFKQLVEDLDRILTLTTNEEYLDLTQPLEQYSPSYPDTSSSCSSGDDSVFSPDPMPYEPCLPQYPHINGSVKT
T7 sequence (P21802 22-680 isoform P21802-22 limits assumed): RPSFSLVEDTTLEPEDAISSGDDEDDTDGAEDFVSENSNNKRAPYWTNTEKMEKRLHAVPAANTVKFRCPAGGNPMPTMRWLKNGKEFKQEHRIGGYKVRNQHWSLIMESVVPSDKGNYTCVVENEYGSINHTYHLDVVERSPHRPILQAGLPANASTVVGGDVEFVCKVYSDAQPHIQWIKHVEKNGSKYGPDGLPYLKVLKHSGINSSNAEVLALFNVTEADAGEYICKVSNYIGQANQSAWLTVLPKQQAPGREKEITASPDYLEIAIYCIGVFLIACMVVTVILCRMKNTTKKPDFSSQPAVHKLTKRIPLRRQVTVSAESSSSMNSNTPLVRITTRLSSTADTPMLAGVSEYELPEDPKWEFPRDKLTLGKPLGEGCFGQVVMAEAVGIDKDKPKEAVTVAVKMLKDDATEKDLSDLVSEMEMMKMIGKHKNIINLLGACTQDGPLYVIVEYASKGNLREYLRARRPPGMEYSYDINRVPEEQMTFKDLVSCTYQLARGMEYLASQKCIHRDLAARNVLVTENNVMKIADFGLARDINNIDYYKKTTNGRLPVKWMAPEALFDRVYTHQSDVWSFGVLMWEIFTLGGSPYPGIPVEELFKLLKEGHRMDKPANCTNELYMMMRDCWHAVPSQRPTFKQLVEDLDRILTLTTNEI
T5 sequence (P21802 22-822 isoform P21802-3 limits assumed): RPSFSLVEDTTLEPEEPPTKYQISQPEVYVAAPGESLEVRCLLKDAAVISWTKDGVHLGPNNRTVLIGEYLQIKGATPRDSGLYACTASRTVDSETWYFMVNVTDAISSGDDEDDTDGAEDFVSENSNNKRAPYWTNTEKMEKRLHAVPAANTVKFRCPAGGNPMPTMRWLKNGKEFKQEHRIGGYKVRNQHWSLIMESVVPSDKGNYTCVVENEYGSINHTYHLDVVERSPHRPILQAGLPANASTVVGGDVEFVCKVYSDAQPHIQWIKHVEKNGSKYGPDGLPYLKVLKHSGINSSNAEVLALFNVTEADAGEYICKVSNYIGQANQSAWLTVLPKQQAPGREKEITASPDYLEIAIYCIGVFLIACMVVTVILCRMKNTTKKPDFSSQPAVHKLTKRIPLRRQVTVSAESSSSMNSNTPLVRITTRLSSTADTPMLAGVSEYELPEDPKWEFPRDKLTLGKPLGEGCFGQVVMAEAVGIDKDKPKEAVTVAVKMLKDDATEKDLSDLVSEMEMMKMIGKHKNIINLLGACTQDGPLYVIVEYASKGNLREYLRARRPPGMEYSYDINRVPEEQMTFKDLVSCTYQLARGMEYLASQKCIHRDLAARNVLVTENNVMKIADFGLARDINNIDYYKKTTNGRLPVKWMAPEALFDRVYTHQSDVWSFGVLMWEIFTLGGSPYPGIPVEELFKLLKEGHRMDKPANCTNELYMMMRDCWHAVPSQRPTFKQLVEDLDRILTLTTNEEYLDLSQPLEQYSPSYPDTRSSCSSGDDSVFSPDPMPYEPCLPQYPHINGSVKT
T4 sequence (P22607 23-808 isoform P22607-2 limits assumed): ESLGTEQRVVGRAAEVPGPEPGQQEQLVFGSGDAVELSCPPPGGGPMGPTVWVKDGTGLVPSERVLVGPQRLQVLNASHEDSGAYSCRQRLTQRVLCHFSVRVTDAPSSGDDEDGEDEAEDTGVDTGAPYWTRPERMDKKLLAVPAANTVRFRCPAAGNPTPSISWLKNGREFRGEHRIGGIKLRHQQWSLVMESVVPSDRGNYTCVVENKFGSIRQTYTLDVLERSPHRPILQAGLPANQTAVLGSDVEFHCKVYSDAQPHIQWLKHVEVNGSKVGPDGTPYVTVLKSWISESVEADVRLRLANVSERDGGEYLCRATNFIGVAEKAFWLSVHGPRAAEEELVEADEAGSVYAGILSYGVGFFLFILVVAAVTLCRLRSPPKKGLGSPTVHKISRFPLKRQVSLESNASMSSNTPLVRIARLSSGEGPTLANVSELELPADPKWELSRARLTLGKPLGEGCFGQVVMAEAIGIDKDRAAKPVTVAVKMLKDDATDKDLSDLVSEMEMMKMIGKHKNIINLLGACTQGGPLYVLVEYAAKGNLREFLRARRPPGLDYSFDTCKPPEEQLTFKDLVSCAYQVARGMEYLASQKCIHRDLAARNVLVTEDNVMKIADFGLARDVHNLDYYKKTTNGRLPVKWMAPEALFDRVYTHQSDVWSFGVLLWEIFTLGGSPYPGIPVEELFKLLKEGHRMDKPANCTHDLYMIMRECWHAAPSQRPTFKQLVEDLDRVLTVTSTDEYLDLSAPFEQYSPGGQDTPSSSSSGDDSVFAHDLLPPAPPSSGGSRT
T6 sequence (P11362 22-733 isoform P11362-3 limits assumed): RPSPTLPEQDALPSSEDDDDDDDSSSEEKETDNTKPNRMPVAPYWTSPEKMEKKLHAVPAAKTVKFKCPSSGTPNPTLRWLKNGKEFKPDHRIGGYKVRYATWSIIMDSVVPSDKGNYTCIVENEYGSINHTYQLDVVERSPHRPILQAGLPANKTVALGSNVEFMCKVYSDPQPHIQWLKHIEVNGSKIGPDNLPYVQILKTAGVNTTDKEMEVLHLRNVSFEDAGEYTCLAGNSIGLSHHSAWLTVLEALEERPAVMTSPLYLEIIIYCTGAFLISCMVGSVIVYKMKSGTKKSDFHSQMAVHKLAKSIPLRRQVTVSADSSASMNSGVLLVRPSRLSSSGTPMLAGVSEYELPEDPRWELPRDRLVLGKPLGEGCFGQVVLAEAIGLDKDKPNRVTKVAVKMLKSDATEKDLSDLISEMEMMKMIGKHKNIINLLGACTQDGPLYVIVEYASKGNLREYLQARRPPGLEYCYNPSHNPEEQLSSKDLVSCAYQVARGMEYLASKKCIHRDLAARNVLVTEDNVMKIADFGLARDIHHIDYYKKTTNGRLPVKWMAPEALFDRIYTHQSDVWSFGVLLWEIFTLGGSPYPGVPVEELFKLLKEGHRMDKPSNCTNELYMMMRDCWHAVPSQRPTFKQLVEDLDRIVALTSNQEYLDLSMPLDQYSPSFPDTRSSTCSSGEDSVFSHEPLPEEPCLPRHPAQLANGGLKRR

B1: M048-D01 (antibody, V domains shown)
VH: EVQLLESGGGLVQPGGSLRLSCAASGFTFSSYAMSWVRQAPGKGLEWVSAISGSGTSTYYADSVKGRFTISRDNSKNTLYLQMNSLRAEDTAVYYCARVRYNWNHGDWFDPWGQGTLVTVSS
VL: QSVLTQPPSASGTPGQRVTISCSGSSSNIGNNYVSWYQQLPGTAPKLLIYENYNRPAGVPDRFSGSKSGTSASLAISGLRSEDEADYYCSSWDDSLNYWVFGGGTKLTVL
- Signal-to-background ratio, hFGFR1β-Fc (IIIb) (hFGFR1β-Fc (IIIb)): 0 (0: <2)
- Signal-to-background ratio, hFGFR2β-Fc (IIIc) (hFGFR2β-Fc (IIIc)): +++ (+++: >5)
- Signal-to-background ratio, mFGFR2β-Fc (IIIc) (mFGFR2β-Fc (IIIc)): +++ (+++: >5)
- Signal-to-background ratio, hFGFR4-Fc (hFGFR4-Fc): 0 (0: <2)
- Signal-to-background ratio, mFGFR3-Fc (IIIc) (mFGFR3-Fc (IIIc)): 0 (0: <2)
- Signal-to-background ratio, mFGFR2β-Fc (IIIb) (mFGFR2β-Fc (IIIb)): +++ (+++: >5)
- Signal-to-background ratio, hFGFR3-Fc (IIIb) (hFGFR3-Fc (IIIb)): 0 (0: <2)
- Signal-to-background ratio, hFGFR2α-Fc (IIIb) (hFGFR2α-Fc (IIIb)): +++ (+++: >5)
- Signal-to-background ratio, hFGFR1β-Fc (IIIc) (hFGFR1β-Fc (IIIc)): 0 (0: <2)
- Signal-to-background ratio, hFGFR2β-Fc (IIIb) (hFGFR2β-Fc (IIIb)): +++ (+++: >5)
- Signal-to-background ratio, hFGFR3-Fc (IIIc) (hFGFR3-Fc (IIIc)): 0 (0: <2)
